Patent US20220057381A1

Key:
Assay in all cases: cell-based or functional assay
[1] = target: KLK2 CAR (on KLK2 CAR-T cells)
[2] = target: BCMA on multiple myeloma target cells (KILR MM-1R; RPMI8226_Luc) (UniProt Q02223)
[3] = target: LCAR-B38M CAR (on LCAR-B38M CAR-T drug product cells)

soluble human KLK2 protein (sKLK2) with C-terminal His6 tag (from UniProt P20151 25-261)
% CAR-T Killing of KILR LNcaP-KLK2 cells, baseline = SH20-KLK2-004-CAR-T blocked w/ 125 ug/mL KLK2 soluble protein (500 mg/mL) [1]: 107%

LCAR-B38M CAR (on LCAR-B38M CAR-T drug product cells) (receptor)
% Total Killing, sample PQ-0330 Donor B MOI = 1.5 on RPMI8226 luc target cells [2]: 77% | % Total Killing, sample SH19-28 on RPMI8226 Luc target cells [2]: 67%

soluble human KLK2 protein (sKLK2) with C-terminal His6 tag (from UniProt P20151 25-261) (enzyme)
% CAR-T Killing of KILR LNcaP-KLK2 cells, baseline = SH20-KLK2-004-CAR-T blocked w/ 2.5 ug/mL KLK2 soluble protein (500 mg/mL) [1]: 49% | % CAR-T Killing of KILR LNcaP-KLK2 cells, baseline = SH20-KLK2-004-CAR-T blocked w/ 12.5 ug/mL KLK2 soluble protein (500 mg/mL) [1]: 68% | % CAR-T Killing of KILR LNcaP-KLK2 cells, baseline = SH20-KLK2-004-CAR-T blocked w/ 25 ug/mL KLK2 soluble protein (500 mg/mL) [1]: 79% | % CAR-T Killing of KILR LNcaP-KLK2 cells, baseline = SH20-KLK2-004-CAR-T blocked w/ 50 ug/mL KLK2 soluble protein (500 mg/mL) [1]: 96% | % CAR-T Killing of KILR LNcaP-KLK2 cells, baseline = SH20-KLK2-004-CAR-T blocked w/ 75 ug/mL KLK2 soluble protein (500 mg/mL) [1]: 106% | % CAR-T Killing of KILR LNcaP-KLK2 cells, baseline = SH20-KLK2-004-CAR-T blocked w/ 100 ug/mL KLK2 soluble protein (500 mg/mL) [1]: 111%

Soluble Human BCMA Protein (sBCMA) (from UniProt Q02223 1-54) (receptor)
% CAR-T Killing of KILR MM-1R cells, baseline = CAR-T cells blocked with 50 ug/mL sBCMA lot C108P1-86BF2-NX [3]: 42% | % CAR-T Killing of KILR MM-1R cells, baseline = CAR-T cells blocked with 100 ug/mL sBCMA lot C108P1-86BF2-NX [3]: 59% | % CAR-T Killing of KILR MM-1R cells, baseline = CAR-T cells blocked with 150 ug/mL sBCMA lot C108P1-86BF2-NX [3]: 68% | % CAR-T Killing of KILR MM-1R cells, baseline = CAR-T cells blocked with 200 ug/mL sBCMA lot C108P1-86BF2-NX [3]: 74% | % CAR-T Killing of KILR MM-1R cells, baseline = CAR-T cells blocked with 250 ug/mL sBCMA lot C108P1-86BF2-NX [3]: 79% | % CAR-T Killing of KILR MM-1R cells, baseline = CAR-T cells blocked with 300 ug/mL sBCMA lot C108P1-86BF2-NX [3]: 79% | % CAR-T Killing of KILR MM-1R cells, baseline = CAR-T cells blocked with 400 ug/mL sBCMA lot C108P1-86BF2-NX [3]: 62% | % CAR-T Killing, Blocking method, sample PQ-0330 Donor B MOI = 1.5 on K562 Luc (non-B cell) target cells [3]: -46% | % CAR-T Killing, Blocking method, sample PQ-0330 Donor B MOI = 1.5 on RPMI8226 luc target cells [3]: 28% | % CAR-T Killing, Blocking method, sample SH19-28 on K562 Luc (non-B cell) target cells [3]: -41% | % CAR-T Killing, Blocking method, sample SH19-28 on RPMI8226 Luc target cells [3]: 29% | % Control T Cell Killing (blocked baseline), Blocking method, sample PQ-0330 Donor B MOI = 1.5 on RPMI8226 luc target cells [3]: 67% | % Control T Cell Killing (blocked baseline), Blocking method, sample SH19-28 on K562 Luc (non-B cell) target cells [3]: 39% | % Control T Cell Killing (blocked baseline), Blocking method, sample SH19-28 on RPMI8226 Luc target cells [3]: 53%
